Measurements as given in US20230340112A1.

Tests used:
[1] = target: human SIRPα expressed on the surface of human monocyte-derived dendritic cells (human) (UniProt P78324); assay: flow cytometry on human monocyte-derived dendritic cells
[2] = target: human SIRPα expressed on the surface of human monocyte-derived dendritic cells (human) (UniProt P78324); assay: flow cytometry, mDC surface binding, donor/experiment 2
[3] = target: human SIRPα expressed on the surface of human monocyte-derived dendritic cells (human) (UniProt P78324); assay: flow cytometry, mDC surface binding, donor/experiment 3
[4] = target: human SIRPα expressed on the surface of human monocyte-derived dendritic cells (human) (UniProt P78324); assay: flow cytometry, mDC surface binding, donor/experiment 4
[5] = target: human SIRPα expressed on the surface of human monocyte-derived dendritic cells (human) (UniProt P78324); assay: flow cytometry, mDC surface binding, donor/experiment 1

Chain of human SIRPα expressed on the surface of human monocyte-derived dendritic cells (human) (P78324 31-504): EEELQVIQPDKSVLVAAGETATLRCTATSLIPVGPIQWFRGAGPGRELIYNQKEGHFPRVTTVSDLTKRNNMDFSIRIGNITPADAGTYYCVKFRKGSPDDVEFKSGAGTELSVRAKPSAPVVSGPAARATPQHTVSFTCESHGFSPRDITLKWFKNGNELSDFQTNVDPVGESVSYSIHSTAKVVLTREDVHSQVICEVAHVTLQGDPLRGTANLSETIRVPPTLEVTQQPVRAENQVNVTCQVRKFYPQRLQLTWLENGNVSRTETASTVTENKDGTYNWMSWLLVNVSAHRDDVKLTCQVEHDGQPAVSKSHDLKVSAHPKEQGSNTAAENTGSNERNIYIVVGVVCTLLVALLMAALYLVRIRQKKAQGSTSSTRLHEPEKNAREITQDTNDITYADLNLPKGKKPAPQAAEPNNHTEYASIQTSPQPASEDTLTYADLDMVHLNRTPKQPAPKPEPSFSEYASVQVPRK

Row | Kd [1] [nM] | Kd [2] [nM] | Kd [3] [nM] | Kd [4] [nM] | Kd [5] [nM] | Binder
1 | 0.572 | – | – | – | – | OSE-172 (antibody, from another filing, V domains shown) VH: EVQLVQSGAEVKKPGESLRISCKASGYSFTSYWVHWVRQMPGKGLEWMGNIDPSDSDTHYSPSFQGHVTLSVDKSISTAYLQLSSLKASDTAMYYCVRGGTGTLAYFAYWGQGTLVTVSS VL: DVVMTQSPLSLPVTLGQPASISCRSSQSLVHSYGNTYLYWFQQRPGQSPRLLIYRVSNRFSGVPDRFSGSGSGTDFTLKISRVEAEDVGVYYCFQGTHVPYTFGGGTKVEIKR
2 | 0.264 | – | – | – | – | 4E10-IgG4 S228P (antibody, V domains shown) VH: EVQLVESGGGLVQPGGSLRLSCAASGFSLSNYEMIWVRQAPGKGLEWVGIIYVSRSTHYASWAKGRFTISRDNSKNTLYLQMNSLRAEDTAVYYCGRYLASGGFNIWGQGTLVTVSS VL: DIQMTQSPSTLSASVGDRVTITCQASHNIYSNLAWYQQKPGKAPKLLIYDASKLASGVPSRFSGSGSGTEFTLTISSLQPDDFATYYCQSYYGNSYPFGGGTKVEIK
3 | 0.0881 | – | – | – | – | 4H- IgG4 S228P (antibody, V domains shown) VH: EVQLVESGGGLVQPGGSLRLSCAASGFSFSSYYFMCWVRQAPGKGLEWVACIDAGYSGGSHYASWAKGRFTISRDNSKNTLYLQMNSLRAEDTAVYYCARAYEYGYGGYDLWGQGTLVTVSS VL: DIQMTQSPSSLSASVGDRVTITCQASQSIDSNLAWYQQKPGKAPKLLIYRASGLESGVPSRFSGSGSGTDFTLTISSLQPEDFATYYCQCTYGSNDSGNYANAFGGGTKVEIK
4 | 0.686 | 0.953 | 0.99 | 1.33 | 1.48 | 14H2B-IgG4 S228P (antibody, V domains shown) VH: EVQLVESGGGLVQPGGSLRLSCAASGIDLSSYSMIWVRQAPGKGLEWIGIIYTGGSTDYASWAKGRFTISRDNSKNTLYLQMNSLRAEDTAVYYCARENSHDTFDPWGQGTLVTVSS VL: DIQMTQSPSSLSASVGDRVTITCQSSQSVYTNYQSWYQQKPGKAPKLLIYAASTLASGVPSRFSGSGSGTDFTLTISSLQPEDFATYYCLGSYVSSGWYYAFGGGTKVEIK
5 | 0.672 | – | – | – | – | 44H-IgG4 S228P (antibody, V domains shown) VH: EVQLVESGGGLVQPGGSLRLSCAASGFSLSSYSMIWVRQAPGKGLEWVGIIYTGSSASYASWAKGRFTISRDNSKNTLYLQMNSLRAEDTAVYYCARENSHDTFDPWGQGTLVTVSS VL: DIQMTQSPSSLSASVGDRVTITCQSSQSVYTNYLSWYQQKPGKAPKLLIYAASTLASGVPSRFSGSGSGTDFTLTISSLQPEDFATYYCLGSYVSSGWYYAFGGGTKVEIK
6 | 1.66 | – | – | – | – | 8H- IgG4 S228P (antibody, V domains shown) VH: EVQLVESGGGLVQPGGSLRLSCAASGFSFSSSDYMCWVRQAPGKGLEWVGCINSGSDTTSYATWAKGRFTISRDNAKNTLYLQMNSLRAEDTAVYYCARGYGSAGANGYVIGMKYLNLWGQGTLVTVSS VL: DIQMTQSPSSLSASVGDRVTITCQASQSIGSNLAWYQQKPGKAPKLLIYTASTLESGVPSRFSGSGSGTDFTLTISSLQPEDFATYYCQCTYGSSSSGYPFGGGTKVEIK
7 | 0.378 | 0.923 | 0.881 | 0.908 | 1.04 | 89H-IgG4 S228P (antibody, V domains shown) VH: EVQLVESGGGLVQPGGSLRLSCAASGFSLSTYAMIWVRQAPGKGLEWVGIISPSGTTYYATWAKGRFTISRDNSKNTLYLQMNSLRAEDTAVYYCARAGSGGWDYFNIWGQGTLVTVSS VL: DIQMTQSPSSLSASVGDRVTITCQASQSISSYLSWYQQKPGKAPKLLIYYASNLASGVPSRFSGSGSGTDFTLTISSLQPEDFATYYCQSYYYSNNYNWAFGGGTKVEIK
